Laboratory results published in patent US20200115430A1 (I2O THERAPEUTICS, published 2020).
Starred links: 1 amine or outer side, 2 acyl side, 3 side chain; linkers in the order of their positions; H or OH if unused. Positions of bridges follow the written chain, without caps; N, C: chain ends. Non-standard residues stand in square brackets, D forms with d. Groups on a side chain read outwards from the residue. Primed or numbered codes have the meaning given here. No end group written: not given here. *: point of attachment. dpeg″ = —[CO(CH2)O(CH2)2O(CH2)NH]— spacer unit, O=C(COCCOCN[*:1])[*:2]; C20 diacid = O=C(O)CCCCCCCCCCCCCCCCCCC(=O)*; C17 diacid = O=C(O)CCCCCCCCCCCCCCCC(=O)*; γGlu = O=C(O)[C@H](CCC(=O)[*:2])N[*:1]

Key:
human amylin 3 receptor = target: T1, human amylin 3 receptor (human, UniProt P30988 25-474; O60896 24-148); experiment: cell-based or functional assay
T1 sequence (looked up) 1: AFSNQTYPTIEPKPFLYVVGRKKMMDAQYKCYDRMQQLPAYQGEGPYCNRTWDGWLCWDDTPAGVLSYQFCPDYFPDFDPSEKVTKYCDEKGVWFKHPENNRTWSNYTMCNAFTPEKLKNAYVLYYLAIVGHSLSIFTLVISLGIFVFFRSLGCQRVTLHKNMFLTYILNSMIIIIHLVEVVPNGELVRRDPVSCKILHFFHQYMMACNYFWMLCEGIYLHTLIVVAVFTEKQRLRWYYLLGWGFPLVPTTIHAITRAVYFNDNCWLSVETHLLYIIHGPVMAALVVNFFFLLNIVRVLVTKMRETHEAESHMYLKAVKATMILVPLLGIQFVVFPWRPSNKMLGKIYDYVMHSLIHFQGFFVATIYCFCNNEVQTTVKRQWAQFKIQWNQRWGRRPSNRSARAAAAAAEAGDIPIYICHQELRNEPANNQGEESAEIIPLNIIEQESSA
T1 sequence (looked up) 2: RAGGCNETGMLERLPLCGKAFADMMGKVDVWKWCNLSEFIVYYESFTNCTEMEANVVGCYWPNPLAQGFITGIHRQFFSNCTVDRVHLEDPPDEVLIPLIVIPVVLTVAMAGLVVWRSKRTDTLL

[1] = target: T2, human calcitonin receptor (human, UniProt P30988 25-474); experiment: cell-based or functional assay
T2 sequence (looked up): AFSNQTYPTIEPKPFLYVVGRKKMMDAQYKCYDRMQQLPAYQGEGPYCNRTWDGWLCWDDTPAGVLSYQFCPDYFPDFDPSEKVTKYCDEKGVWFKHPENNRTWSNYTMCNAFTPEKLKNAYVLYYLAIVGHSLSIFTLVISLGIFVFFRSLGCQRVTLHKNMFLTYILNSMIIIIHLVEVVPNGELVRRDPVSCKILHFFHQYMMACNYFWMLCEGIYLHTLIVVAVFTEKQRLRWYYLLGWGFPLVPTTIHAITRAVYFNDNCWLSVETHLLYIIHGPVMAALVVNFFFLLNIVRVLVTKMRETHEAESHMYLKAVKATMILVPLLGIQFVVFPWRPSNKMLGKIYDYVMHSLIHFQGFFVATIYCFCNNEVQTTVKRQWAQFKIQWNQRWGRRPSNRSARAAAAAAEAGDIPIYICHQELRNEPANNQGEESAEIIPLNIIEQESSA

pEC50 (cAMP accumulation), 0% HSA (human amylin 3 receptor) | pEC50 (cAMP accumulation), 0.1% HSA (human amylin 3 receptor) | pEC50 (cAMP accumulation), 4% HSA (human amylin 3 receptor) | pEC50 (cAMP accumulation), 0% HSA [1] | pEC50 (cAMP accumulation), 0.1% HSA [1] | pEC50 (cAMP accumulation), 4% HSA [1] | Binder
11.9 pEC50 | 10.5 pEC50 | 8.9 pEC50 | 10.8 pEC50 | 10 pEC50 | 7.7 pEC50 | SCNTSTCATQRLANEK(C20 diacid)HKSSNNFGPILPPTKVGSETY-NH2 (disulfide 2-7; N-terminus assumed; SMILES CC[C@H](C)[C@H](NC(=O)[C@@H]1CCCN1C(=O)CNC(=O)[C@H](Cc1ccccc1)NC(=O)[C@H](CC(N)=O)NC(=O)[C@H](CC(N)=O)NC(=O)[C@H](CO)NC(=O)[C@H](CO)NC(=O)[C@H](CCCCN)NC(=O)[C@H](Cc1c[nH]cn1)NC(=O)[C@H](CCCCNC(=O)CCCCCCCCCCCCCCCCCCC(=O)O)NC(=O)[C@H](CCC(=O)O)NC(=O)[C@H](CC(N)=O)NC(=O)[C@H](C)NC(=O)[C@H](CC(C)C)NC(=O)[C@H](CCCNC(=N)N)NC(=O)[C@H](CCC(N)=O)NC(=O)[C@@H](NC(=O)[C@H](C)NC(=O)[C@@H]1CSSC[C@H](NC(=O)[C@@H](N)CO)C(=O)N[C@@H](CC(N)=O)C(=O)N[C@@H]([C@@H](C)O)C(=O)N[C@@H](CO)C(=O)N[C@@H]([C@@H](C)O)C(=O)N1)[C@@H](C)O)C(=O)N[C@@H](CC(C)C)C(=O)N1CCC[C@H]1C(=O)N1CCC[C@H]1C(=O)N[C@H](C(=O)N[C@@H](CCCCN)C(=O)N[C@H](C(=O)NCC(=O)N[C@@H](CO)C(=O)N[C@@H](CCC(=O)O)C(=O)N[C@H](C(=O)N[C@@H](Cc1ccc(O)cc1)C(N)=O)[C@@H](C)O)C(C)C)[C@@H](C)O) [Compound A75]
11.7 pEC50 | 9.7 pEC50 | 8.5 pEC50 | 10.8 pEC50 | 8.5 pEC50 | 8 pEC50 | SCNTSTCATQRLAN[dK]([γGlu-γGlu-dpeg″-C20 diacid])LHKSSNNFGPILPPTKVGSETY-NH2 (disulfide 2-7; N-terminus assumed; SMILES CC[C@H](C)[C@H](NC(=O)[C@@H]1CCCN1C(=O)CNC(=O)[C@H](Cc1ccccc1)NC(=O)[C@H](CC(N)=O)NC(=O)[C@H](CC(N)=O)NC(=O)[C@H](CO)NC(=O)[C@H](CO)NC(=O)[C@H](CCCCN)NC(=O)[C@H](Cc1c[nH]cn1)NC(=O)[C@H](CC(C)C)NC(=O)[C@@H](CCCCNC(=O)CC[C@H](NC(=O)CC[C@H](NC(=O)COCCOCNC(=O)CCCCCCCCCCCCCCCCCCC(=O)O)C(=O)O)C(=O)O)NC(=O)[C@H](CC(N)=O)NC(=O)[C@H](C)NC(=O)[C@H](CC(C)C)NC(=O)[C@H](CCCNC(=N)N)NC(=O)[C@H](CCC(N)=O)NC(=O)[C@@H](NC(=O)[C@H](C)NC(=O)[C@@H]1CSSC[C@H](NC(=O)[C@@H](N)CO)C(=O)N[C@@H](CC(N)=O)C(=O)N[C@@H]([C@@H](C)O)C(=O)N[C@@H](CO)C(=O)N[C@@H]([C@@H](C)O)C(=O)N1)[C@@H](C)O)C(=O)N[C@@H](CC(C)C)C(=O)N1CCC[C@H]1C(=O)N1CCC[C@H]1C(=O)N[C@H](C(=O)N[C@@H](CCCCN)C(=O)N[C@H](C(=O)NCC(=O)N[C@@H](CO)C(=O)N[C@@H](CCC(=O)O)C(=O)N[C@H](C(=O)N[C@@H](Cc1ccc(O)cc1)C(N)=O)[C@@H](C)O)C(C)C)[C@@H](C)O) [Compound A96]
11.6 pEC50 | 9.3 pEC50 | 8 pEC50 | 10.9 pEC50 | 8.5 pEC50 | 7.5 pEC50 | K([γGlu-γGlu-dpeg″-dpeg″-γGlu-C20 diacid])CNTSTCATQRLANELHKSSNNFGPILPPTKVGSETY-NH2 (disulfide 2-7) [Compound A112]
11.5 pEC50 | 10.4 pEC50 | 9.4 pEC50 | 10.3 pEC50 | 9.9 pEC50 | 9.5 pEC50 | SCNTSTCATQRLANEK(C17 diacid)HKSSNNFGPILPPTKVGSETY-NH2 (disulfide 2-7; N-terminus assumed; SMILES CC[C@H](C)[C@H](NC(=O)[C@@H]1CCCN1C(=O)CNC(=O)[C@H](Cc1ccccc1)NC(=O)[C@H](CC(N)=O)NC(=O)[C@H](CC(N)=O)NC(=O)[C@H](CO)NC(=O)[C@H](CO)NC(=O)[C@H](CCCCN)NC(=O)[C@H](Cc1c[nH]cn1)NC(=O)[C@H](CCCCNC(=O)CCCCCCCCCCCCCCCC(=O)O)NC(=O)[C@H](CCC(=O)O)NC(=O)[C@H](CC(N)=O)NC(=O)[C@H](C)NC(=O)[C@H](CC(C)C)NC(=O)[C@H](CCCNC(=N)N)NC(=O)[C@H](CCC(N)=O)NC(=O)[C@@H](NC(=O)[C@H](C)NC(=O)[C@@H]1CSSC[C@H](NC(=O)[C@@H](N)CO)C(=O)N[C@@H](CC(N)=O)C(=O)N[C@@H]([C@@H](C)O)C(=O)N[C@@H](CO)C(=O)N[C@@H]([C@@H](C)O)C(=O)N1)[C@@H](C)O)C(=O)N[C@@H](CC(C)C)C(=O)N1CCC[C@H]1C(=O)N1CCC[C@H]1C(=O)N[C@H](C(=O)N[C@@H](CCCCN)C(=O)N[C@H](C(=O)NCC(=O)N[C@@H](CO)C(=O)N[C@@H](CCC(=O)O)C(=O)N[C@H](C(=O)N[C@@H](Cc1ccc(O)cc1)C(N)=O)[C@@H](C)O)C(C)C)[C@@H](C)O) [Compound A79]
